Measurements: article PMC10315065 (Journal of Innate Immunity, 2023)

Assays:
[1] = tested on: cell surface GAPDH, J774; format: cell-based, mouse; details: IFNγ 100 ng/mL, 24 h; n = 3
[2] = tested on: GAPDH, J774; assay: GAPDH activity in cell lysate; format: cell-based, mouse
[3] = tested on: cell surface GAPDH, THP-1; format: cell-based; details: IFNγ; empty vector vs GAPDH knockdown; n = 3
[4] = tested on: P2X7, THP-1; format: cell-based; details: IFNγ; empty vector vs GAPDH knockdown; n = 3

B1: IFNγ: recombinant mouse IFNγ (PeproTech #315-05) (protein, UniProt P01580 23-155, looked up)
Interferon gamma: HGTVIESLESLNNYFNSSGIDVEEKSLFLDIWRNWQKDGDMKILQSQIISFYLRLFEVLKDNQAISNNISVIESHLITTFFSNSKAKKDAFMSIAKFEVNNPQVQRQAFNELIRVVHQLLPESSLRKRKRSRC
- increase in cell surface GAPDH localization [1]: ~50%
- GAPDH activity ([2]; IFNγ 100 ng/mL, 24 h): enhanced GAPDH activity
- total cellular GAPDH ([2]; IFNγ treatment, Fig. 1i): significant increase in total cellular GAPDH
- GAPDH recruitment on the cell surface, WT and GAPDH K/D [3]: enhanced GAPDH recruitment on the cell surface of WT cells but failed to do so in GAPDH K/D cells
- surface P2X7 expression [4]: surface expression of P2X7 continued to be elevated irrespective of GAPDH K/D
